Results as given in the RNAGym collection of RNA variant scans (doi:10.1073/pnas.2313332121).

B1: TPR t1 (parent)
chain: GACCAAUCUGCCCUCAGAGCUCGAGAACAUCUUCGGAUGCAGAGGAGGCAGGCUUCGGUGGCGCGAUAGCGCCAACGUCCUCAACCUCCAAUGCAUCCCACCACAUGAUGAUGCCUGAAGAGCCUUGGUUUUUUG

Variants of: B1
Experiment: polymerase ribozyme fitness, log enrichment relative to wild type (log ratio); higher = more active; in vitro selection for triplet polymerase activity
Method in brief: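 Libraries of mutants in each subunit of a heterodimeric triplet polymerase ribozyme were generated by PCR and transcribed. In triplicate, each went through one in vitro selection round: annealing with biotinylated primer, partner subunit and triplets; frozen incubation at −7 °C; gel excision of extended constructs; streptavidin-bead capture; RT-PCR. Fitness, taken from Illumina sequencing of input and output libraries, is the logarithm of a genotype's enrichment over wild-type enrichment, averaged across replicates with inverse-variance weights. The logarithm is base 2, and genotypes needed ≥10 input reads and ≥1 read per output to be kept.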

Row | Variant | polymerase ribozyme fitness (log ratio)
1 | G35A G63C | -5.56
2 | G35A G63A | -3.91
3 | G36C C70U G113C | -3.46
4 | C34U G52A G71U | -4.6
5 | G36U C53U A105C | -2.88
6 | G36A C62A | -1.61
7 | G36A C62U | -0.332
8 | G35C G61C C98G | -5.36
9 | G36A G45U G61C | -3.57
10 | G35A U132A | -3.49
11 | G35U C56U A121G | -4.8
12 | G36U C102U | -2.93
13 | C34U U96A | -5.35
14 | C34U U96C | -5.22
15 | G36A G71A U87C C123G | 0.907
16 | G36U C73U | -2.28
17 | C34U G45U C88A C124G | -4.4
18 | G36C G44C U81G A121C | -3.56
19 | C34U G51U G61A C114U | -6.98
20 | G36A C102U | -3.67
21 | G36C A66C U125G | -2.72
22 | G36A A37U C86U U112A G120U | -5.12
23 | G36C C56U C89G G117U | -7.02
24 | G35A G117C | -6.51

Row | Variant | polymerase ribozyme fitness (log ratio)
25 | G35A G117U | -5.09
26 | G36C G52A | -1.54
27 | G35A G42A G61A U106A U112G A121C G127U G128A | -6.38
28 | G35A U92G A121G U125A | -5.24
29 | G35C C76U G77U C123U | -6.87
30 | C34U G69U A105U G120U | -2.74
31 | G36A C49G G69U A90G C97U G120C | 0.538
32 | G35A C56U C72U | -4.68
33 | C34U C73A A111U C114G G135A | -6.34
34 | G35A C56A C123G G128C | -5.64
35 | G35U C49A C64U | -6.12
36 | G35C C56U | -4.82
37 | G35A G60U | -3.33
38 | G36C C72A C76A U106A G110A | -5.56
39 | C34U C86U | -5.16
40 | G35A C53G C104U G117U C124G U126G | -5.98
41 | G36A A43G A105U U112C | -5.32
42 | G35U C64U | -5.09
43 | C34U U78G | -5.06
44 | G36C C40A A74C G93C | -2.45
45 | G36A G57A C80U U112C C114A A119U G122U | -5.44
46 | G35U A84C | -5.41
47 | G35U G61A | -4.27
48 | G35U G113C G120A G135C | -5.82

Row | Variant | polymerase ribozyme fitness (log ratio)
49 | G35U C79U C114U U131C U134G | -5.19
50 | G36U C53G G63C C86U U87A C101A U129G | -5.54
51 | G35U C80A | -6.8
52 | G35U G39A C80G C97U C114A | -6.51
53 | G35U C97U G120U | -5.69
54 | G36C G44U A46C A50G G69U U78A C85A C124U | -4.01
55 | G36U C62A C123U G128C | -3.69
56 | G35U C82U | -7.04
57 | G36C A37U C82A U116G G120C | -3.26
58 | C34U G71U | -3.99
59 | G36U C64U | -1.21
60 | G36A G61A | -0.395
61 | G35C G69U C79G U130A | -4.92
62 | C34U C123G | -1.94
63 | G36C C49U C101G A119U | -3.31
64 | G36C G120U | -0.655
65 | G36C G120A | -0.114
66 | C34U G47C A66C G71A G110C U129C | -6.98
67 | G35U C86U C98A | -4.39
68 | G36A A43U | -2.94
69 | G35C A46C A118U C123G | -4.04
70 | G35A U55G | -4.9
71 | G35A G60U A121U | -2.03
72 | C34U G61C C94U C98U G120U G127U | -5.79

Row | Variant | polymerase ribozyme fitness (log ratio)
73 | G36A C73U | -0.561
74 | G36A C73A | -1.1
75 | G36C A50U C62U C101G | -4.84
76 | G36A C88U | -0.885
77 | G35A U116C | -3.83
78 | C34U G44A G69A | -7.2
79 | G36A G45C C49A C73A | -0.979
80 | C34U G117A | -5.61
81 | G36U C56U | -1.07
82 | G36U C56A U132A | -1.83
83 | G35C U106C G117A | -5.76
84 | C34U G65C G117C A121C | -7.56
85 | C34U C94G | -5.95
86 | G36U A43U | -2.65
87 | G35U U54C C64G C76G C85U G113U | -7.14
88 | G36C G42C G47C C53G C56U G61U C72U C86G U116C | -4.72
89 | G35C A95G | -4.43
90 | G35U C101A C115U | -6.19
91 | C34U U112C C124A | -1.63
92 | G35U C40U | -4.76
93 | C34U G60A C124A | -3.3
94 | C34U G77A A103C G117U G127C U130A | -7.38
95 | G36A A111G | -3.41
96 | G35A C56A | -4.2

Row | Variant | polymerase ribozyme fitness (log ratio)
97 | G36U C80U C85U C98U C102A A103U A105C U106G C115G | -5.37
98 | G35U U67G U109A C115U | -7.12
99 | G36A G117C | -4.58
100 | G36A G117U | -4.6
101 | G36U C73U A119U | -1.63
102 | G36A G52C C70G | -5.49
103 | G35C G61A U106G U112A | -3.75
104 | G36A G58A C62U U116A | -4.45
105 | G36C A50C U59A A118U G120A | -0.713
106 | C34U U81A | -5.06
107 | C34U U81C | -5.69
108 | G36C G51A | -3.99
109 | G36C A37G G60C A121U | 0.419
110 | G36C C102A | -3.12
111 | G36U A50G C114A U132A | -2.9
112 | G35C C49A U112G | -6.16
113 | C34U U109A U130G | -4.69
114 | G36C G61C C86U C114U | -6.11
115 | G36A C86A C115A G120U | -2.65
116 | G35A G120A | -2.08
117 | G35A G52U | -3.5
118 | G35U C64U U78C | -5.42
119 | G35A G58A U78A C104U | -4.33
120 | G36A G57U U129C | -1.31

Row | Variant | polymerase ribozyme fitness (log ratio)
121 | G35C C123G | -2.8
122 | G36A A37G G52C | -4.05
123 | G35A G69C C115U | -6.53
124 | G36C A84U C85A C114G | -6
125 | G36C G69U G120C | 0.673
126 | G35C G52U A68C U92A C98G G110C G117U | -6.61
127 | G35U G39C G120A U125A | -5.76
128 | G35C C85A U109A C114G C124U | -4.87
129 | G36A C86U | -0.488
130 | G36A U109A | -5.64
131 | G35U G45A | -5.37
132 | G35U U106C G122A | -6.34
133 | C34U G52U | -5.84
134 | G36U C101U U116C | -2.19
135 | G36C U38C G71U | -4.73
136 | C34U C85U | -4.13
137 | G36C G42C G60C U130A | -3.88
138 | G36A A41U C56G G57U | -3.93
139 | C34U G61U | -3.87
140 | C34U G61C | -4.48
141 | G36A A46C C104U U116A | -3.8
142 | G35U U78A | -5.42
143 | G35C C53U C94U A121C | -3.49
144 | G36U A66G G69U U87G | -2.53

Row | Variant | polymerase ribozyme fitness (log ratio)
145 | G35A C89A | -5.84
146 | G35U U78A C86U G93A G122A C123A | -6.42
147 | G36C C79G C98U C115U C124U | -6.21
148 | G35C G61C U81G G117C | -5.32
149 | G36C C94U | -1.47
150 | G36C U126G | -3.08
151 | G36C G42A C89U C114A G117C | -6.44
152 | G35A C123G U129G | -2.61
153 | G36A U54A U112A | 1.22
154 | G36A U54A C89G C101G | -5.15
155 | G36C C53U G61A U112A G113U | -1.83
156 | G35U G113C | -7.04
157 | G35A U131C | -6.04
158 | G36A G63A | -1.78
159 | G36U A90G | -0.944
160 | G36A U78A C82G U125G | -2.73
161 | G36A G61U U87C C123G | 0.936
162 | G35A G58C G60U | -5.24
163 | G35A G120C C124A | -3.97
164 | G35A U78A | -4.53
165 | G35A C53G C62U G77C A84C | -4.08
166 | G36C G63U A95C A111U | -6.67
167 | G36U C56G C82U G113A | -2.31
